Test results as given in patent US20260176378A1 (DYAX, published 2026).

Legend:
human plasma kallikrein = biological target: T1, human plasma kallikrein (human, UniProt P03952 20-390; P03952 391-638); assay: ELISA, biotinylated pKal signal over streptavidin background
T1 construct: two disulfide-linked chains; NP_000883.2; also called pKal; hpKal

[1] = biological target: T2, pKal catalytic domain Mutant 2 (human, UniProt P03952 391-638); assay: equilibrium Ki,app
T2 construct: Pichia pastoris; construct limits derived as for the wild type domain; not shown: His tag fusion
T2 sequence (P03952 other isoform, or with tags, fused parts or gaps mutant): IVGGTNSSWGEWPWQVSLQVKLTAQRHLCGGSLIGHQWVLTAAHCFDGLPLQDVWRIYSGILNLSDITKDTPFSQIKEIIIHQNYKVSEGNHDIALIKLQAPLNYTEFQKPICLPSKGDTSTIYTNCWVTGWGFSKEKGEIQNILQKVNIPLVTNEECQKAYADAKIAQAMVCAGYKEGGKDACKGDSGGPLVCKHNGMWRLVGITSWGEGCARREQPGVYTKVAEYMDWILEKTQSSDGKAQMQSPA
Procedure: Enzyme and inhibitor were pre-incubated for 2 hours at 30° C. in a 96-well plate by adding 10 μL of a 10× enzyme solution and 10 μL of 10× inhibitor solutions to 70 μL of reaction buffer. Reactions were initiated by the addition of 10 μL of a 10× concentrated stock of substrate, and were monitored at 30° C. in a fluorescence plate reader with the excitation and emission wavelengths set at 360 nm/460 nm, respectively. Kinetic data were acquired by the increase in fluorescence, and initial rates for each condition were plotted against the total inhibitor concentration. The data was fit to the following equation for tight binding inhibitors: […]

T1 sequence (P03952 20-390 limits assumed, chain 1 of 2): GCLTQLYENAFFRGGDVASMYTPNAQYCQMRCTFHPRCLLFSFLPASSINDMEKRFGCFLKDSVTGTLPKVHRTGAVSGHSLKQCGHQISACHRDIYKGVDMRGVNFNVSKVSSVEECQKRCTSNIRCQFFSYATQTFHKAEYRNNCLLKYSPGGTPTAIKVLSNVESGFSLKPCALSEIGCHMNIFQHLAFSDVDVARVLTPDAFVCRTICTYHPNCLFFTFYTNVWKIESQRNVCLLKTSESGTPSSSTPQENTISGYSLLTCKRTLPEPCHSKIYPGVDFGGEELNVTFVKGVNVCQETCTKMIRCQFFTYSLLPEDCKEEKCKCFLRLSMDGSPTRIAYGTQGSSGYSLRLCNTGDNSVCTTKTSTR
T1 sequence (P03952 391-638 limits assumed, chain 2 of 2): as the sequence (P03952 other isoform, or with tags, fused parts or gaps mutant) above, with A161R, A163Q, A165Y, A168T, A170R counted along it

B1: M161-C11 (Fab, V domains shown)
VH: EVQLLESGGGLVQPGGSLRLSCAASGFTFSDYAMKWVRQAPGKGLEWVSSISSSGGVTQYADSVKGRFTISRDNSKNTLYLQMNSLRAEDTAVYYCAREEDYSSSWYSRRFDYYYGMDVWGQGTTVTVSS
VL: QSALTQPPSVSVSPGQTASITCSGDKLGDKYVSWYQQRPGQSPVLVIYQDTKRPSGIPERFSGSNSGNTATLTISGTQAVDEADYYCQAWDSSTYVFGGGTKVTVL
ELISA (T/B) (human plasma kallikrein): 41.8

B2: M6-D09 (Fab, V domains shown)
VH: EVQLLESGGGLVQPGGSLRLSCAASGFTFSFYYMVWVRQAPGKGLEWVSVIYPSGGITVYADSVKGRFTISRDNSKNTLYLQMNSLRAEDTAVYYCARDKWAVMPPYYYYAMDVWGQGTTVTVSS
VL: DIQMTQSPSSLSASVGDRVTITCRASQSIRNYLNWYQQKPGKAPNLLIYAASTLQSGVPARFSGSGSGTDFTLTISSLQPEDFATYYCQQLSGYPHTFGQGTKLEIK
notes: also called M06-D09; 559A-M06-D09
ELISA (T/B) (human plasma kallikrein): 39.9 | fold change of Ki,app against the wild type catalytic domain [1]: ~5 fold

B3: M160-G12 (antibody, V domains shown)
VH: EVQLLESGGGLVQPGGSLRLSCAASGFTFSHYLMTWVRQAPGKGLEWVSYISPSGGHTIYADSVKGRFTISRDNSKNTLYLQMNSLRAEDTAVYYCARVARGIAARSRTSYFDYWGQGTLVTVSS
VL: DIQMTQSPSFLSASVGDRVTITCRASQGISSYLAWYQQKPGKAPKLLIYAASTLQSGVPSRFSGSGSGTEFTLTISSLQPEDFATYYCQQLNSYPLTFGGGTKVEIK
notes: phage-derived Fab; also called R84-D02
ELISA (T/B) (human plasma kallikrein): 38.3

B4: M8-A09 (Fab, V domains shown)
VH: EVQLLESGGGLVQPGGSLRLSCAASGFTFSTYFMLWVRQAPGKGLEWVSSIYPSGGNTVYADSVKGRFTISRDNSKNTLYLQMNSLRAEDTAVYYCARAASPVRNYYYYGMDVWGQGTTVTVSS
VL: QCELTQPPSESVSPGQTANITCSGDKLGNKYAYWYQQKPGQSPVLVIYQDNNRPSGIPERFSGSNSGNTATLTISGTQAIDEANYYCQAWDSRTVVFGGGTKLTVL
ELISA (T/B) (human plasma kallikrein): 5.4

B5: M7-E07 (Fab, V domains shown)
VH: EVQLLESGGGLVQPGGSLRLSCAASGFTFSWYLMIWVRQAPGKGLEWVSYIYPSGGFTYYADSVKGRFTISRDNSKNTLYLQMNSLRAEDMAVYYCARTEGPLSWGYGMDVWGQGTTVTVSS
VL: not shown
ELISA (T/B) (human plasma kallikrein): 45.7

B6: M152-A12 (Fab, V domains shown)
VH: EVQLLESGGGLVQPGGSLRLSCAASGFTFSPYFMGWVRQAPGKGLEWVSGIGPSGGSTTYADSVKGRFTISRDNSKNTLYLQMNSLRAEDTAVYYCAREGPPYSSGWYRGLRQYHFDYWGQGTLVTVSS
VL: DIQMTQSPSSLSASVGDRVTITCRASQSISSYLSWYQQRPGKAPNLLIYAASSLQSGVPSRFSGSGSGTDFTLTISSLQPEDFATYYCQQSISIPRTFGQGTKVEVK
ELISA (T/B) (human plasma kallikrein): 19

B7: M10-F10 (Fab, V domains shown)
VH: EVQLLESGGGLVQPGGSLRLSCAASGFTFSFYNMNWVRQAPGKGLEWVSSISPSGGETNYADSVKGRFTISRDNSKNTLYLQMNSLRAEDTAVYYCARGGGAYRNNWWGGFDIWGLGTMVTVSS
VL: DIQMTQSPSSLSASVGDRVTITCRASQSISVYLNWYQHKPGKAPKLLIYGASNLQFGVPSRFSGSGYGTDFTLTISSLQPEDFATYHCQQTFSLFTFGGGTKVEIK
ELISA (T/B) (human plasma kallikrein): 39.2

B8: M162-A04 (antibody, V domains shown)
VH: EVQLLESGGGLVQPGGSLRLSCAASGFTFSHYIMMWVRQAPGKGLEWVSGIYSSGGITVYADSVKGRFTISRDNSKNTLYLQMNSLRAEDTAVYYCAYRRTGIPRRDAFDIWGQGTMVTVSS
VL: DIQMTQSPSTLSASVGDRVTITCRASQSISSWLAWYQQKPGKAPNLLIYKASTLESGVPSRFSGSGSGTEFTLTISSLQPDDFATYYCQQYNTYWTFGQGTKVEIK
notes: phage-derived Fab; also called R84-H05; M162-A4
ELISA (T/B) (human plasma kallikrein): 11.4
